Measurements as given in patent publication US20220227866A1 (VELOSBIO, published 2022).
“And” between values parts separate entries of the source, which are not always exact repeats. Identical values can stand only once.

What was measured:
[1] = biological target: T1, human ROR1 on cells (human, UniProt Q01973 30-937); assay: cell-based or functional assay
[2] = biological target: T1, human ROR1 on cells; assay: cell-based or functional assay; remark: listed apart in the source
[3] = biological target: T2, human CD3 on Jurkat cells (human, UniProt P09693 23-182; P04234 22-171; P07766 23-207); assay: flow cytometry on Jurkat cells
T2 construct: GenBank NP_000064.1, NP_000723.1, NP_000724.1
Outline: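 Jurkat cells (2.5E5 per condition) incubated with bispecific molecule in PBS/2% FBS on ice for 20 min, then detected with PE-labelled anti-human Fc (1:500, 20 min on ice). Cells fixed in 2% paraformaldehyde and bound antibody measured by flow cytometry.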

[4] = biological target: T3, recombinant human ROR1 extracellular domain (human, UniProt Q01973 30-406); assay: ELISA, immobilised ROR1 ECD, construct titrated
T3 construct: Bought (Acro Biosystems cat. R01-H522Y); whole entry named; also called ROR1-ECD; immobilized ROR1

[5] = biological target: T4, soluble biotinylated human ROR1 extracellular domain (human, UniProt Q01973 30-406, biotinylated with EZ-Link Sulfo-NHS-LC-Biotin at a 1:5 molar ratio); assay: ELISA, captured construct, biotinylated ROR1 titrated; first of the two values given
T4 construct: Acro Biosystems cat; whole entry named; also called b-ROR1; soluble b-ROR1
Procedure: (§1) To measure the binding of bispecific constructs to soluble ROR1, a 96-well Costar-3366 plate was coated with 50 μL/well of 2 μg/mL goat anti-human kappa (Southern Biotech cat. #2060-01) in PBS overnight at 4° C. The plate was rinsed once with PBS-T, blocked with 100 μL/well 5% M-P for 1 h at 25° C., rinsed once with PBS-T, and 2 μg/mL of the bispecific binding molecule was added and incubated for 1 h at 25° C. The plate was washed three times with PBS-T. Biotinylated ROR1 was diluted serially, 3-fold in 5% M-P and was incubated for 1 h at 25° C. (50 μL/well). The plate was washed three times with PBS-T. To detect the binding of b-ROR1, 50 μL/well Neutravidin-HRP (Pierce cat. #31030) diluted 1:5000 in 1% BSA-PBS was added for 1 h at 25° C. […] The reaction was terminated by the addition of 2 N H₂SO₄ and the A450 was determined using a Spectramax plate reader.
(§2) The stronger binding observed with bivalent constructs versus monovalent constructs in cell assays and ELISAs in which the antigen is immobilized is consistent with an avidity effect. To determine if this was the case, binding to soluble monomeric ROR1 was assessed by immobilizing the bispecific binding molecules on a microtiter plate coated with goat anti-human kappa antibody and titrating biotinylated RORL. […]

[6] = biological target: T4, soluble biotinylated human ROR1 …; assay: ELISA, captured construct, biotinylated ROR1 titrated; second of the two values given
Procedure: as §1, §2

[7] = biological target: T3, recombinant human ROR1 extracellular …; assay: ELISA, immobilised ROR1 ECD, antibody titrated
Procedure: A 96-well Costar-3366 plate was coated with 50 μL/well of 2 μg/mL […] (Acro Biosystems cat. #R01-H522Y) in PBS overnight at 4° C. The plate was rinsed once with PBS containing 0.05% Tween 20 (PBS-T) and blocked with 100 μL/well of 5% non-fat milk in PBS (5% M-P) for 1 h at 25° C. Antibody samples were serially diluted 2-fold using 5% M-P and were incubated for 1 h at 25° C. (50 μL/well). The plate was washed three times with PBS-T and 50 μL/well anti-human kappa, HRP conjugate (Southern Biotech cat. #2060-05) diluted 10,000-fold in 5% M-P was added for 1 h at 25° C. The plate was washed three times with PBS-T, developed with 50 μL/well 1-Step Ultra TMB-ELISA (Thermo Scientific cat. #34028). The reaction was terminated by the addition of 2 N H₂SO₄ and the A450 was determined using a Spectramax plate reader.
Next, the binding of bispecific binding molecules to ROR was characterized by ELISA using recombinantly-expressed extracellular domain of RORL. ROR was immobilized on a microtiter plate, the bispecific binding molecules were titrated, and binding was quantitated with an anti-human kappa-HRP reagent. Consistent with the cell binding data, all constructs bound ROR1 in a concentration-dependent manner (FIG. 6). Moreover, monovalent ROR1 constructs 13-15 bound less tightly than all but two of the bivalent constructs.

[8] = biological target: T4, soluble biotinylated human ROR1 …; assay: ELISA, captured antibody, biotinylated ROR1 titrated
Procedure: as §1, §2

[9] = biological target: T1, human ROR1 on cells; assay: flow cytometry, ROR1-transfected MEC cells, 30 µg/mL
Procedure: Internalization of bispecific binding molecules was measured using a pulse-chase methodology that quantitates non-internalized, cell surface antibody at 0, 30, 60, 120, 180, and 240 minutes using flow cytometry. ROR1-transfected MEC cells were washed with cold PBS and resuspended at 1×10⁷ per mL in cold incubation buffer (RPMI with 2% FBS—Fisher/Gibco cat. #16140071). Then, 3.5×10⁶ cells were aliquoted to microcentrifuge tubes for each bispecific construct tested. An equal volume (350 μL) of bispecific binding molecule was combined with the cells to make a final concentration of 30 μg/mL. […] Cells and antibody were incubated on ice for 20 minutes, washed five times with 1 mL of cold FACS buffer (PBS with 2% FBS), and resuspended in 1.4 mL of incubation buffer. Subsequently, the samples were incubated at 37° C. for 0, 30, 60, 120, 180, and 240 minutes after which time 200 μL of each sample was transferred to ice to halt internalization.
Samples for each construct and timepoint were split in half (100 μL each) and spun down. Half of the samples were resuspended in 100 μL secondary antibody (goat anti-human IgG-PE, Fc-gamma specific—eBiosciences cat. #12-4998) to detect bound bispecific constructs. The other half was stained with 100 μL cocktail of UC961-PE and 4A5-AlexaFluor647. […] Subsequently, fixed cells were washed once with FACS buffer and analyzed.

[10] = biological target: T4, soluble biotinylated human ROR1 …; assay: ELISA, captured construct, biotinylated ROR1 titrated

T1 sequence (Q01973 30-937 limits assumed): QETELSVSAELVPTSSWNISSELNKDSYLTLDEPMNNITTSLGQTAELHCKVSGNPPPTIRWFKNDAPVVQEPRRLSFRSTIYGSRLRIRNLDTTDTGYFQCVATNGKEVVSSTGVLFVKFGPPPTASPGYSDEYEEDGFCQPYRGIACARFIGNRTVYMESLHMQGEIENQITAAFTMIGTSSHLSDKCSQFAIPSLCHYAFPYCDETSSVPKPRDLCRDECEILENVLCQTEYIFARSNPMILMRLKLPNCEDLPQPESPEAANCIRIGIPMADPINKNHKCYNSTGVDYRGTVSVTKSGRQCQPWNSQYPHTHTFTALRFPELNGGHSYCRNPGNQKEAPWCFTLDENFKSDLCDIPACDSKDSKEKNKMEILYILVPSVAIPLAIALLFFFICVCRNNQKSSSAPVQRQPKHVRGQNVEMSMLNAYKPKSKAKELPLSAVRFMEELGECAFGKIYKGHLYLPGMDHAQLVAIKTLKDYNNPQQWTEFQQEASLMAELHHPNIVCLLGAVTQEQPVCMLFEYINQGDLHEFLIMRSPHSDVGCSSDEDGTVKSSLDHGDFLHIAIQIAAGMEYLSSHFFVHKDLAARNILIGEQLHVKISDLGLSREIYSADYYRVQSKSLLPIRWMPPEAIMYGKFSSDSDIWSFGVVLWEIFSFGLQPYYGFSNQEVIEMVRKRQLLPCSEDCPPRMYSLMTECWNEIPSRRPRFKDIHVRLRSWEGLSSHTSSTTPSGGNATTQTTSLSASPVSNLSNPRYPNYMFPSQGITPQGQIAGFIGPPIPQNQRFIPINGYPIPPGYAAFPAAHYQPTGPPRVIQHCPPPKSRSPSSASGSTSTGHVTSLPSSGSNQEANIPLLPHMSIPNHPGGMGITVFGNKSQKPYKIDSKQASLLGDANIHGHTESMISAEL
T3 sequence (Q01973 30-406 limits assumed): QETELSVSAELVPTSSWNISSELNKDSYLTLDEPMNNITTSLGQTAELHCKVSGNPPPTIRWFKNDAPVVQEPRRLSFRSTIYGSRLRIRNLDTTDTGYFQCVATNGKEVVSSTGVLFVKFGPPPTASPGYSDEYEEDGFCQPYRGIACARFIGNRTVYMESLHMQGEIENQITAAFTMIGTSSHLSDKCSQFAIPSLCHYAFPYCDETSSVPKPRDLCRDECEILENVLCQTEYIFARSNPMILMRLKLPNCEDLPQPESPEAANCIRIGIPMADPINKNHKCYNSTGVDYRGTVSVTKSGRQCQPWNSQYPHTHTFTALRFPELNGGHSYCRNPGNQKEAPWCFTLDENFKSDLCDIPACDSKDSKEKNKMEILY
T4 sequence (Q01973 30-406 limits assumed): as above
T2 sequence (P09693 23-182 limits assumed, chain 1 of 3): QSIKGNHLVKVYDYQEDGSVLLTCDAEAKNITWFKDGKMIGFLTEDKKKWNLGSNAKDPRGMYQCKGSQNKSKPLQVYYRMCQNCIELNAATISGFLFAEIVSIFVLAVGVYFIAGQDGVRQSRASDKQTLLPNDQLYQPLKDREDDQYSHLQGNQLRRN
T2 sequence (P04234 22-171 limits assumed, chain 2 of 3): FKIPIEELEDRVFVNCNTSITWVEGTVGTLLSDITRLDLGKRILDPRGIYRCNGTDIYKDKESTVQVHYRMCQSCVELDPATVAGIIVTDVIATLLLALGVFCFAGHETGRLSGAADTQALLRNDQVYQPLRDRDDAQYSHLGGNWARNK
T2 sequence (P07766 23-207 limits assumed, chain 3 of 3): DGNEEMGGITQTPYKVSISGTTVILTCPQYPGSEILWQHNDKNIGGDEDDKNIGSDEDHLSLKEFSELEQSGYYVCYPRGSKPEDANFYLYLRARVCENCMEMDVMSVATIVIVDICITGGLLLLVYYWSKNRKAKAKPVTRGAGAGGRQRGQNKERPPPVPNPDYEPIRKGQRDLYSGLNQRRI

B1: Bispecific construct 9 (bispecific antibody, human IgG1, kappa)
heavy: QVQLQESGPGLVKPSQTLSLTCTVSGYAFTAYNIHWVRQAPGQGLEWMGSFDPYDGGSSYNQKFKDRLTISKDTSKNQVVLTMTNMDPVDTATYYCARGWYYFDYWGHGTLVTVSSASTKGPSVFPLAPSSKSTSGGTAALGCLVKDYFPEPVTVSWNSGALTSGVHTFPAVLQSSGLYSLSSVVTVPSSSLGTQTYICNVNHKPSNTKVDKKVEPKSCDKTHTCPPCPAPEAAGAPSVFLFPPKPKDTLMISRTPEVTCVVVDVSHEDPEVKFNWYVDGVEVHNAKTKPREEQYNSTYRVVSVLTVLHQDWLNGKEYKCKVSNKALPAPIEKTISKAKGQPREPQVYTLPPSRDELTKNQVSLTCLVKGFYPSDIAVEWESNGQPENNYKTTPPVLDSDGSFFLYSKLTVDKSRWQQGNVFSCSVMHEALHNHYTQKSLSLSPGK
light: DIVMTQTPLSLPVTPGEPASISCRASKSISKYLAWYQQKPGQAPRLLIYSGSTLQSGIPPRFSGSGYGTDFTLTINNIESEDAAYYFCQQHDESPYTFGEGTKVEIKRTVAAPSVFIFPPSDEQLKSGTASVVCLLNNFYPREAKVQWKVDNALQSGNSQESVTEQDSKDSTYSLSSTLTLSKADYEKHKVYACEVTHQGLSSPVTKSFNRGECGGGGSGGGGSEVQLVESGGGLVQPGGSLRLSCAASGFTFNTYAMNWVRQAPGKGLEWVARIRSKYNNYATYYADSVKGRFTISRDDSKNTLYLQMNSLRAEDTAVYYCVRHGNFGNSYVSYFAYWGQGTTVTVSSGGGGSGGGGSGGGGSGGGGSEIVVTQSPATLSVSPGERATLSCRSSTGAVTAANYANWVQEKPGQAFRGLIGGANKRAPGVPARFSGSLSGDEATLTISSLQSEDFAVYYCALFYSNLWVFGQGTKLEIK
notes: anti-CD3 scFv Ab10 (SP34-based); ROR1 arm Ab1; valency 2/2
EC50, LDH release, ROR1-transfected MEC, one PBMC donor [1]: < 0.1 ng/mL
EC50, LDH release, A549 [2]: 9.95 ng/mL and 49.8 pM
EC50, LDH release, A4573 [2]: 9.71 ng/mL and 48.6 pM
EC50, LDH release, JeKo-1 [2]: 1.71 ng/mL and 8.5 pM
EC50, LDH release, MDA-MB-468 [2]: 5.55 ng/mL and 27.8 pM
EC50, LDH release, Mino [2]: 0.75 ng/mL and 3.8 pM
EC50, LDH release, NCI-H1975 [2]: 2.3 ng/mL and 11.5 pM
EC50, LDH release, Saos-2 [2]: 14.6 ng/mL and 73.2 pM
Max. LDH Release, Mino [2]: 75%
binding result [3]: binds
Kd [4]: 0.158 nM
Kd [5]: 0.268 nM
Kd [6]: 0.229 nM

B2: parental anti-ROR1 IgG (Ab1) (antibody, V domains shown)
VH: QVQLQESGPGLVKPSQTLSLTCTVSGYAFTAYNIHWVRQAPGQGLEWMGSFDPYDGGSSYNQKFKDRLTISKDTSKNQVVLTMTNMDPVDTATYYCARGWYYFDYWGHGTLVTVSS
VL: DIVMTQTPLSLPVTPGEPASISCRASKSISKYLAWYQQKPGQAPRLLIYSGSTLQSGIPPRFSGSGYGTDFTLTINNIESEDAAYYFCQQHDESPYTFGEGTKVEIKR
notes: also called Control; parental IgG
Kd [7]: 0.037 nM
Kd [8]: 0.158 nM and 0.145 nM

B3: Bispecific construct 13 (bispecific antibody, human IgG1, kappa)
heavy 1: not shown
heavy 2: QVQLVQSGGGVVQPGRSLRLSCKASGYTFTRYTMHWVRQAPGKGLEWIGYINPSRGYTNYNQKVKDRFTISRDNSKNTLYLQMDSLRAEDTAVYYCARYYDDHYSLDYWGQGTTVTVSSGGGGSGGGGSGGGGSGGGGSDIQMTQSPSSLSASVGDRVTITCSASSSVSYMNWYQQKPGKAPKRWIYDTSKLASGVPSRFSGSGSGTDFTFTISSLQPEDIATYYCQQWSSNPFTFGQGTKLEIKEPKSSDKTHTCPPCPAPEAAGAPSVFLFPPKPKDTLMISRTPEVTCVVVDVSHEDPEVKFNWYVDGVEVHNAKTKPREEQYNSTYRVVSVLTVLHQDWLNGKEYKCKVSNKALPAPIEKTISKAKGQPREPQVYTLPPSRDELTKNQVSLSCAVKGFYPSDIAVEWESNGQPENNYKTTPPVLDSDGSFFLVSKLTVDKSRWQQGNVFSCSVMHEALHNHYTQKSLSLSPGK
light: DIVMTQTPLSLPVTPGEPASISCRASKSISKYLAWYQQKPGQAPRLLIYSGSTLQSGIPPRFSGSGYGTDFTLTINNIESEDAAYYFCQQHDESPYTFGEGTKVEIKRTVAAPSVFIFPPSDEQLKSGTASVVCLLNNFYPREAKVQWKVDNALQSGNSQESVTEQDSKDSTYSLSSTLTLSKADYEKHKVYACEVTHQGLSSPVTKSFNRGEC
notes: ROR1 arm Ab1; CD3 valency 1, ROR1 valency 1
EC50, LDH release, ROR1-transfected MEC [2]: 12 ng/mL and 96 pM
Max. LDH Release, ROR1-transfected MEC [2]: 46%
binding result [3]: binds
Kd [4]: 0.194 nM
binding extent relative to the saturated MFI of constructs 1 and 7 at time 0 [9]: ~80%
Kd [10]: 0.226 nM
